What all share (test): cell-based or functional assay
The target of assay [1] is HIV-1 Env of pseudovirus 191955_A11 (HIV-1).
In assay [2] the target is HIV-1 Env of pseudovirus 263-8 (HIV-1).
The target of assay [3] is HIV-1 Env of pseudovirus 9004SS_A3_4 (HIV-1).
For assay [4], the target named is HIV-1 Env of pseudovirus 928-28 (HIV-1).
In assay [5] the target is HIV-1 Env of pseudovirus T257-31 (HIV-1).
Assay [6] addresses HIV-1 Env of pseudovirus 0815.v3.c3 (HIV-1).
In assay [7] the target is HIV-1 Env of pseudovirus 211-9 (HIV-1).
Assay [8] concerns the target HIV-1 Env of pseudovirus 231965.c01 (HIV-1).
In assay [9] the target is HIV-1 Env of pseudovirus 231966.c02 (HIV-1).
Assay [10] addresses HIV-1 Env of pseudovirus 235-47 (HIV-1).
Assay [11] has as its target HIV-1 Env of pseudovirus 3016.v5.c45 (HIV-1).
Assay [12] deals with HIV-1 Env of pseudovirus 3103.v3.c10 (HIV-1).
Assay [13] addresses HIV-1 Env of pseudovirus 3301.v1.c24 (HIV-1).
Assay [14] has as its target HIV-1 Env of pseudovirus 3817.v2.c59 (HIV-1).
The target in assay [15] is HIV-1 Env of pseudovirus 620345.c01 (HIV-1).
The target of assay [16] is HIV-1 Env of pseudovirus 6540.v4.c1 (HIV-1).
Assay [17] addresses HIV-1 Env of pseudovirus 6545.v4.c1 (HIV-1).
Assay [18] addresses HIV-1 Env of pseudovirus 6811.v7.c18 (HIV-1).
Assay [19] has as its target HIV-1 Env of pseudovirus 6952.v1.c20 (HIV-1).
Assay [20] addresses HIV-1 Env of pseudovirus 89-F1_2_25 (HIV-1).
The target in assay [21] is HIV-1 Env of pseudovirus A07412M1.vrc12 (HIV-1).
Assay [22] concerns the target HIV-1 Env of pseudovirus BJOX010000.06.2 (HIV-1).
Assay [23] has as its target HIV-1 Env of pseudovirus BJOX015000.11.5 (HIV-1).
In assay [24] the target is HIV-1 Env of pseudovirus BJOX025000.01.1 (HIV-1).
Assay [25] concerns the target HIV-1 Env of pseudovirus BJOX028000.10.3 (HIV-1).
For assay [26], the target named is HIV-1 Env of pseudovirus C3347.c11 (HIV-1).
In assay [27] the target is HIV-1 Env of pseudovirus C4118.c09 (HIV-1).
Assay [28] deals with HIV-1 Env of pseudovirus P0402_c2_11 (HIV-1).
For assay [29], the target named is HIV-1 Env of pseudovirus P1981_C5_3 (HIV-1).
Assay [30] deals with HIV-1 Env of pseudovirus R1166.c01 (HIV-1).
Assay [31] deals with HIV-1 Env of pseudovirus R2184.c04 (HIV-1).
Assay [32] deals with HIV-1 Env of pseudovirus R3265.c06 (HIV-1).
Assay [33] concerns the target HIV-1 Env of pseudovirus T251-18 (HIV-1).
The target in assay [34] is HIV-1 Env of pseudovirus T255-34 (HIV-1).
For assay [35], the target named is HIV-1 Env of pseudovirus X1254_c3 (HIV-1).
For assay [36], the target named is HIV-1 Env of pseudovirus X2131_C1_B5 (HIV-1).

Take 8ANC195 (antibody): the IC50 (in general, the point on the concentration scale where inhibition reaches its midpoint) in assay [1] was more than 50 µg/mL; in [2], more than 50 µg/mL; in [3], 0.17 µg/mL; in assay [4], more than 50 µg/mL; in [5], 0.32 µg/mL. For the same substance, the IC80 (commonly the point of the concentration-response curve where the effect stands at 80%) in [1] is more than 50 µg/mL; in assay [2], more than 50 µg/mL; in assay [3], 0.81 µg/mL; in assay [4], more than 50 µg/mL; in assay [5] it was 3.89 µg/mL.

VRC07 (antibody): the IC50 was found to be 0.978 µg/mL in assay [1]; 0.103 µg/mL in assay [2]; 0.218 µg/mL in assay [3]; 0.278 µg/mL in [4]; 0.421 µg/mL in [5]. Also, the IC80 in [1] came out at 4.82 µg/mL; in [2], 0.282 µg/mL; in assay [3], 0.75 µg/mL; in assay [4] it was 0.957 µg/mL; in assay [5], 3.17 µg/mL.

On to PGT151 (antibody), for which the IC50 (Titer in TZM.bl cells) was more than 50 µg/mL in [6]; 0.002 µg/mL in assay [7]; less than 0.001 µg/mL in assay [8]; 0.025 µg/mL in assay [9]; 38.1 µg/mL in [10]; 0.174 µg/mL in assay [11]. Moreover, the IC50 (Titer in TZM.bl cells) in assay [12] was 0.014 µg/mL; in assay [13], 0.002 µg/mL; in [14], more than 50 µg/mL; in assay [15] it was more than 50 µg/mL; in assay [16], 0.006 µg/mL; in assay [17], 0.004 µg/mL. The IC50 (Titer in TZM.bl cells) in assay [18] is more than 50 µg/mL; in assay [19] it was 49.2 µg/mL; in [20], 22.9 µg/mL; in [21], 0.246 µg/mL; in assay [22], more than 50 µg/mL; in assay [23] it was more than 50 µg/mL. Further, the IC50 (Titer in TZM.bl cells) was more than 50 µg/mL in assay [24]; more than 50 µg/mL in assay [25]; more than 50 µg/mL in assay [26]; more than 50 µg/mL in assay [27]; less than 0.001 µg/mL in [28]; 0.021 µg/mL in assay [29]. Moreover, the IC50 (Titer in TZM.bl cells) was more than 50 µg/mL in assay [30]; more than 50 µg/mL in assay [31]; more than 50 µg/mL in assay [32]; 0.327 µg/mL in assay [33]; 0.002 µg/mL in assay [34]; 0.309 µg/mL in [35]. The IC50 (Titer in TZM.bl cells) in assay [36] came out at 0.007 µg/mL. In addition, the IC80 (Titer in TZM.bl cells) in assay [6] is more than 50 µg/mL; in [7] it was 0.01 µg/mL; in [8] it was 0.012 µg/mL; in [9] it was 0.183 µg/mL; in assay [10] it was more than 50 µg/mL; in [11] it was 40.7 µg/mL. Further, the IC80 (Titer in TZM.bl cells) in [12] was 0.202 µg/mL; in assay [13] it was 0.019 µg/mL; in [14] it was more than 50 µg/mL; in assay [15], more than 50 µg/mL; in [16] it was 0.03 µg/mL; in assay [17] it was 0.026 µg/mL. Also, the IC80 (Titer in TZM.bl cells) in assay [18], in assay [19], in [20], in [21], in [22] and in assay [23] was more than 50 µg/mL in each case. Moreover, the IC80 (Titer in TZM.bl cells) in [24] is more than 50 µg/mL; in assay [25], more than 50 µg/mL; in assay [26] it was more than 50 µg/mL; in assay [27] it was more than 50 µg/mL; in assay [28] it was 0.004 µg/mL; in [29], more than 50 µg/mL. Moreover, the IC80 (Titer in TZM.bl cells) in assay [30] is more than 50 µg/mL; in assay [31], more than 50 µg/mL; in assay [32] it was more than 50 µg/mL; in assay [33], more than 50 µg/mL; in [34], 0.01 µg/mL; in assay [35] it was more than 50 µg/mL. Moreover, in [36], the IC80 (Titer in TZM.bl cells) amounted to 0.036 µg/mL. For the same substance, the neutralization IC50 in [1] was 0.004 µg/mL; in assay [2], more than 50 µg/mL; in [3], 0.003 µg/mL; in assay [4] it was more than 50 µg/mL; in [5], 0.003 µg/mL. The neutralization IC80 in assay [1] was 0.014 µg/mL; in assay [2], more than 50 µg/mL; in [3] it was 0.015 µg/mL; in assay [4], more than 50 µg/mL; in assay [5] it was 0.01 µg/mL.

As to NIH 45-46 (antibody), the IC50 in assay [1] worked out at 0.11 µg/mL; in assay [2], 0.05 µg/mL; in assay [3] it was 0.18 µg/mL; in assay [4], 0.1 µg/mL; in assay [5], 0.23 µg/mL. For the same substance, the IC80 in assay [1] worked out at 0.43 µg/mL; in assay [2], 0.1 µg/mL; in assay [3] it was 0.65 µg/mL; in assay [4] it was 0.39 µg/mL; in assay [5], 1.11 µg/mL.

Consider 3BNC117 (antibody), for which the IC50 in assay [1] is more than 50 µg/mL; in assay [2], 0.005 µg/mL; in [3] it was 0.07 µg/mL; in assay [4] it was 0.15 µg/mL; in [5], 0.06 µg/mL. Further, the IC80 in assay [1] is more than 50 µg/mL; in [2], 0.04 µg/mL; in assay [3], 0.18 µg/mL; in assay [4], 0.55 µg/mL; in assay [5], 0.37 µg/mL.
